Assay results reported in the supplement of paper PMC6755084.

B1: minF1; a variant is named by its letters at N, in order (parent)
chain: GAGACCGCAACTGAAAAGTTGTTNNNNAANNNNGGNTNNATTTCTGCACGTAGAAGCAAAAGGC

Variants of: B1
Test: fraction ligated after 30 min (ligated reads / total reads); higher = more ligase activity
Conditions: with F1*subA RNA substrate (template-directed ligation), 42 °C
Protocol: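 Chip-synthesised pool of minF1 ligase ribozyme variants (single and double substitutions, single to quadruple deletions, bulge and P2 designed variants) was transcribed with T7 and reacted as a pool with excess substrate F1*subA for 30 min at 42 C in 50 mM EPPS pH 8.5, 25 mM MgCl2. Ligated and unligated RNAs were separated by PAGE, barcoded by RT and deep sequenced; fraction ligated = ligated reads / total reads, relative activity = FL / FL of wild-type minF1 (0.76); sequencing FL correlated with PAGE (R2 = 0.98). Sequences are the DNA template of the ribozyme.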

| Variant | fraction ligated |
| --- | --- |
| CAGAGGATGTA T23A | 0.00339 |
| CAGATGGAGTT G34T T37G A40G | 0.000312 |
| CAGAGGATGTA A29T | 0.00385 |
| AAGAGGTGTGA | 0.00286 |
| AAGATGGGTGA | 0.00372 |
| TAGAGGAGTGA A29T | 0.00156 |
| CAGAGGATGTG | 0.00526 |
| CAGAGGATGTA | 0.000794 |
| CAGAGGAGTGA A29T | 0 |
| CAAAGGATGTA T23A A29T | 0.000678 |
| AAAAGGATGTA A29T | 0.00276 |
| TAAAGGATTGA T23A A29T | 0.00317 |
| TAGAGGATTGA T23A A29T | 0.00233 |
| TAGATATGTGA | 0.00128 |
| AAGATGATGTA | 0.00102 |
| AAGATGATGTG | 0.00397 |
| CAGAGGTGTGA T23A A29T | 0.00102 |
| CAGATGGGTGA | 0.00455 |
| AAGATGATTGA | 0.0028 |
| TAGATGGAGTT G34T T37G A40G | 0.00199 |
| AAGAGGAGTGA A29T | 0.00209 |

| Variant | fraction ligated |
| --- | --- |
| CAGAGGATGTG T23A | 0.00549 |
| CAGATGATTGA T23A | 0.00168 |
| TAGATGATGTG | 0.0051 |
| TAGATGATGTA | 0.00158 |
| TAGATGGAGTT T23A G34T T37G A40G | 0.00177 |
| TAGAGGTGTGA A29T | 0.00319 |
| CAGAGGATTGA T23A | 0.00223 |
| TAGAGATGTGA A28T A29G | 0.00491 |
| CAGATGATGTA | 0.00303 |
| CAGATGATGTG | 0.00641 |
| CAGATGATTGA | 0.0023 |
| TAGAGATGTGA | 0.00183 |
| CAGATGGAGTG T23A | 0.00354 |
| AAGATGGAGTA | 0.00181 |
| AAGATGGAGTG | 0.00495 |
| CAGATGGAGTT G34T T37G | 0.0026 |
| TAGATGATTGA | 0.00145 |
| TAGATGGAGTG | 0.00279 |
| TAGATGGAGTA | 0.00154 |
| CAAAGGATGTG A29T | 0.0079 |
| TAGAGGATGTG T23A | 0.00675 |

| Variant | fraction ligated |
| --- | --- |
| CAAAGGTGTGA T23A A29T | 0.00303 |
| TAAAGGATGTA T23A A29T | 0.000932 |
| AAGAGGATGTA A29T | 0.00173 |
| TAGAGGATGTA T23A | 0.00339 |
| CAGATGGAGTA G34T | 0.00644 |
| AAGAGATGTGA A29T | 0.00363 |
| AAGAGATGTGA A29G | 0.00367 |
| CAGAGGAGTGA T23A | 0.00148 |
| TAGAGGAGTGA T23A | 0.0026 |
| AAGATGGATGA | 0.00526 |
| CAGAGGATTGA A29T | 0.0052 |
| AAGAGGATTGA A29T | 0.007 |
| TAGAGGATGTA T23A A29T | 0.00136 |
| TAGATGAGTGA T23A | 0.00274 |
| CAGAGATGTGA A28T A29G | 0.00451 |
| CAGAGGATGTG T23A A29T | 0.0132 |
| CAGAGGAGTGA T23A A29T | 0.000641 |
| AAAAGGATTGA A29T | 0.00197 |
| CAGAGGATGTG A29T | 0.0108 |
| TAGATGGAGTA G34T | 0.00584 |
| CAGAGATGTGA A29T | 0.00205 |

| Variant | fraction ligated |
| --- | --- |
| CAGAGATGTGA A29G | 0.00315 |
| TAGAGGATTGA | 0.00125 |
| TAGAGGTGTGA T23A | 0.00196 |
| TAGAGGATTGA A29T | 0.00809 |
| TAGAGGAGTGA | 0.00669 |
| CAGATATGTGA | 0.00323 |
| TAGAGATGTGA T23A | 0.00319 |
| CAAAGGATGTA A29T | 0.00185 |
| TAGATGGAGTG G34T | 0.0121 |
| CAGAGGAGTGA | 0.0058 |
| CAAAGGATTGA T23A A29T | 0.00487 |
| TAGAGGTGTGA | 0.00375 |
| TAGATGGAGTA T23A G34T | 0.0029 |
| CAGATGGAGTA T23A | 0.00106 |
| TAGATGGTGTA | 0.00141 |
| TAGATATGTGA T23A | 0.00255 |
| AAAAGATGTGA T23C A28T A29G | 0.00238 |
| TAGATGATGTG T23A | 0.00386 |
| AAGAGGATGTG A29T | 0.00669 |
| AAAAGGATGTG A29T | 0.00334 |
| TAGATGGGTGA | 0.00433 |
